{"source": "patent US20240261333A1", "about": "“NOVEL TARGETS FOR ENHANCING ANTI-TUMOR IMMUNITY” (THE BROAD INSTITUTE, INC., priority 2021, published 2024)", "key": {"RPL9 (human)": {"target": "RPL9 (human) (UniProt P32969)", "assay": "co-IP with control IgG, mass spectrometry; lysate of cells with N-FLAG B3GNT2"}, "RPL26 (human)": {"target": "RPL26 (human) (UniProt P61254)", "assay": "co-IP with control IgG, mass spectrometry; lysate of cells with N-FLAG B3GNT2"}, "TOR1AIP2 (human)": {"target": "TOR1AIP2 (human) (UniProt Q8NFQ8)", "assay": "co-IP with control IgG, mass spectrometry; lysate of cells with N-FLAG B3GNT2"}, "CTHRC1 (human)": {"target": "CTHRC1 (human) (UniProt Q96CG8)", "sequence (Q96CG8 other isoform, or with tags, fused parts or gaps limits assumed)": "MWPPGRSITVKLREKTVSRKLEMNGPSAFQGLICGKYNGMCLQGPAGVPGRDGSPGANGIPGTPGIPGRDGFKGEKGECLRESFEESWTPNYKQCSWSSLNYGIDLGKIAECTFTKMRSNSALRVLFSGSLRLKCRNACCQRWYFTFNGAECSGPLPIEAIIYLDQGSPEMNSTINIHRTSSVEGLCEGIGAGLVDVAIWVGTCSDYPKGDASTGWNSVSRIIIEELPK", "assay": "co-IP with control IgG, mass spectrometry; lysate of cells with N-FLAG B3GNT2"}, "PSMD4 (human)": {"target": "PSMD4 (human) (UniProt P55036)", "assay": "co-IP with control IgG, mass spectrometry; lysate of cells with N-FLAG B3GNT2"}, "HADHA (human)": {"target": "HADHA (human) (UniProt P40939)", "assay": "co-IP with control IgG, mass spectrometry; lysate of cells with N-FLAG B3GNT2"}, "CD70 (human)": {"target": "CD70 (human) (UniProt P32970)", "sequence (P32970 whole entry)": "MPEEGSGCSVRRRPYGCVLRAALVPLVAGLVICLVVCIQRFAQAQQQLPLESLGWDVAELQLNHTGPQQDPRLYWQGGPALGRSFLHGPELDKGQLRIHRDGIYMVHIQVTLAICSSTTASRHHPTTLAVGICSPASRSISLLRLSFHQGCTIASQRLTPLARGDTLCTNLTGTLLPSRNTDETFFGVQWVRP", "assay": "co-IP with control IgG, mass spectrometry; lysate of cells with N-FLAG B3GNT2"}, "MAGT1 (human)": {"target": "MAGT1 (human) (UniProt Q9H0U3)", "sequence (Q9H0U3 30-335 limits assumed)": "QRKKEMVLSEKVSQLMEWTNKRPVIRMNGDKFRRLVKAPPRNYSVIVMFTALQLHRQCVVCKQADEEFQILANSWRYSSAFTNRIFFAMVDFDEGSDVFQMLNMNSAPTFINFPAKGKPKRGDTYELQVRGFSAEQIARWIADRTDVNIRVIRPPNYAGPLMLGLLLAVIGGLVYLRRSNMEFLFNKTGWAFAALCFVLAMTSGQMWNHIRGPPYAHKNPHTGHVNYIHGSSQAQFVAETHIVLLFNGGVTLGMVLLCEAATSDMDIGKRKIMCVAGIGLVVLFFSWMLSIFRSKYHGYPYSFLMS", "assay": "co-IP with control IgG, mass spectrometry; lysate of cells with N-FLAG B3GNT2"}, "ARHGEF2 (human)": {"target": "ARHGEF2 (human) (UniProt Q92974)", "assay": "co-IP with control IgG, mass spectrometry; lysate of cells with N-FLAG B3GNT2"}, "HSPD1 (human)": {"target": "HSPD1 (human) (UniProt P10809)", "assay": "co-IP with control IgG, mass spectrometry; lysate of cells with N-FLAG B3GNT2"}, "PIGR (human)": {"target": "PIGR (human) (UniProt P01833)", "assay": "co-IP with control IgG, mass spectrometry; lysate of cells with N-FLAG B3GNT2"}, "GANAB (human)": {"target": "GANAB (human) (UniProt Q14697)", "sequence (Q14697 29-944 limits assumed)": "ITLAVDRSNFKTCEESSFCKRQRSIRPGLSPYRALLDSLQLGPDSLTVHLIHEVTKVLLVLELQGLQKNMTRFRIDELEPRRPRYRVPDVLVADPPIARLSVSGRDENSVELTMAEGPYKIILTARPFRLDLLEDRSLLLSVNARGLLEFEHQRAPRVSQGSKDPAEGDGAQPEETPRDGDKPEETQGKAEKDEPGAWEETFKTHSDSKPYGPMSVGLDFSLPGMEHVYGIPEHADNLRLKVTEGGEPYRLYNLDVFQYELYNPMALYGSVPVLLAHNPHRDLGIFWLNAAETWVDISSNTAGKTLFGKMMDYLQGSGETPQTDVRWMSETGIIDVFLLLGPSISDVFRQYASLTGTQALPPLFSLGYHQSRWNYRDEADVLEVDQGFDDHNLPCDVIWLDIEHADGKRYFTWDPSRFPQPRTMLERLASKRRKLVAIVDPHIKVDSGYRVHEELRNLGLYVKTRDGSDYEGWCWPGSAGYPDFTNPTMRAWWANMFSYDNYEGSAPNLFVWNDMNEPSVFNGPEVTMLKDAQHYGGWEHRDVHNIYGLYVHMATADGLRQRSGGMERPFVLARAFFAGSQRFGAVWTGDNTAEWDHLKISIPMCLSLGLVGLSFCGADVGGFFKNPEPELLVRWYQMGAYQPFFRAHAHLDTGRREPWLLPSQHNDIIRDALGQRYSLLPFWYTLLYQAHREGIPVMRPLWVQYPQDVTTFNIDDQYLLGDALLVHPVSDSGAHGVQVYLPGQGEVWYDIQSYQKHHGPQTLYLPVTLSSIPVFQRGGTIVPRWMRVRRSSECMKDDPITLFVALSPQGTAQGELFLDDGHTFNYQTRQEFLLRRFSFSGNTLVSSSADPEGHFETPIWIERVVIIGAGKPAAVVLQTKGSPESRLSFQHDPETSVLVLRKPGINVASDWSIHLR", "assay": "co-IP with control IgG, mass spectrometry; lysate of cells with N-FLAG B3GNT2"}, "SPRR1A (human)": {"target": "SPRR1A (human) (UniProt P35321)", "assay": "co-IP with control IgG, mass spectrometry; lysate of cells with N-FLAG B3GNT2"}, "PJA2 (human)": {"target": "PJA2 (human) (UniProt O43164)", "sequence (O43164 2-708 limits assumed)": "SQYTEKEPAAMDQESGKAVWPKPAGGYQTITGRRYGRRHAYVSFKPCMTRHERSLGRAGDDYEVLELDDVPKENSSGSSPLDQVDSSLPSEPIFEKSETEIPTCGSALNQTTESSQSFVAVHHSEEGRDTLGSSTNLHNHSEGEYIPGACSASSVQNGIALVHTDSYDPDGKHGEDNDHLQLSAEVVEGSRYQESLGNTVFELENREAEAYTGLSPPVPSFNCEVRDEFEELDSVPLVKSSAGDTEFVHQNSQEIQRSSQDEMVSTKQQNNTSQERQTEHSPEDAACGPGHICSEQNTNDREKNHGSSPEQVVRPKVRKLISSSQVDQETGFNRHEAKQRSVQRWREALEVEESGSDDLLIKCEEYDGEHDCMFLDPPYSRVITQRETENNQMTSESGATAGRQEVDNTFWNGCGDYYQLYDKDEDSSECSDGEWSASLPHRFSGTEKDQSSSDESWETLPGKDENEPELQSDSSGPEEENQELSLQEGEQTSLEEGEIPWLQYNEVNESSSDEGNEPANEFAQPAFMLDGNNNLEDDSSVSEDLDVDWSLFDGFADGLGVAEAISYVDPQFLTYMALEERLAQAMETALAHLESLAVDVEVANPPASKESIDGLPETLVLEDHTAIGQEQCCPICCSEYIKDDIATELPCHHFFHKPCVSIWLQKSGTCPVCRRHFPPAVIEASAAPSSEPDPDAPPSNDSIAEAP", "assay": "co-IP with control IgG, mass spectrometry; lysate of cells with N-FLAG B3GNT2"}, "ARF4 (human)": {"target": "ARF4 (human) (UniProt P18085)", "assay": "co-IP with control IgG, mass spectrometry; lysate of cells with N-FLAG B3GNT2"}, "SLC25A5 (human)": {"target": "SLC25A5 (human) (UniProt P05141)", "assay": "co-IP with control IgG, mass spectrometry; lysate of cells with N-FLAG B3GNT2"}, "HNRNPH1 (human)": {"target": "HNRNPH1 (human) (UniProt P31943)", "assay": "co-IP with IgG control, lysate of C-FLAG B3GNT2 cells, mass spectrometry"}, "RPL7A (human)": {"target": "RPL7A (human) (UniProt P62424)", "assay": "co-IP with IgG control, lysate of C-FLAG B3GNT2 cells, mass spectrometry"}, "DDX3X (human)": {"target": "DDX3X (human) (UniProt O00571)", "assay": "co-IP with IgG control, lysate of C-FLAG B3GNT2 cells, mass spectrometry"}, "XPO1 (human)": {"target": "XPO1 (human) (UniProt O14980)", "sequence (O14980 whole entry)": "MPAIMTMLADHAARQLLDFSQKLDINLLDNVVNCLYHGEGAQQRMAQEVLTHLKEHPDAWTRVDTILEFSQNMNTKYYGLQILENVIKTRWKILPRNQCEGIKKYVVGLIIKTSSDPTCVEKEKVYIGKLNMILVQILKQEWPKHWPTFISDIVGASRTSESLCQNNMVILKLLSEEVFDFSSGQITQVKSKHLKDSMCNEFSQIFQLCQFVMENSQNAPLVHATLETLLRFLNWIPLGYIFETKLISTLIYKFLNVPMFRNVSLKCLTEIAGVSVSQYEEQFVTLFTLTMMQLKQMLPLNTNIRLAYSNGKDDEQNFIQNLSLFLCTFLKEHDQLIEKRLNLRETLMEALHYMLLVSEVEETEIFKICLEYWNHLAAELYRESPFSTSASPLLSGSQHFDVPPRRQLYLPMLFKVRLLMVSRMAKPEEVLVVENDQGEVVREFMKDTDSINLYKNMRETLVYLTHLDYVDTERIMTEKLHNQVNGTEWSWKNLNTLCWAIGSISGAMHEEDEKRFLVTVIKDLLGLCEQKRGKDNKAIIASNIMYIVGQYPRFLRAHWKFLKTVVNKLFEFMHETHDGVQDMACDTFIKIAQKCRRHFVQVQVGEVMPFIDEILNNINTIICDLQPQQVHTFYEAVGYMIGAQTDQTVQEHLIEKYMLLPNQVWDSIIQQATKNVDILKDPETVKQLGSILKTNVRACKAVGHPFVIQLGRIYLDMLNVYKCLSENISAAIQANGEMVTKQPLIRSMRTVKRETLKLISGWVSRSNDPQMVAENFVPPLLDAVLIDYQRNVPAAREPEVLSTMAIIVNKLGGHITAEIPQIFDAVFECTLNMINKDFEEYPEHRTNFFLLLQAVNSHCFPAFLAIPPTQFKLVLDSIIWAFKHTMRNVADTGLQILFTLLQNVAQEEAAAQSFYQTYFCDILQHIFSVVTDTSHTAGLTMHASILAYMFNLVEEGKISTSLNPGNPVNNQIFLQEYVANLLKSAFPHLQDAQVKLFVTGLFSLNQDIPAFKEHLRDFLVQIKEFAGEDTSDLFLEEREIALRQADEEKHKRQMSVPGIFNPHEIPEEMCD", "assay": "co-IP with IgG control, lysate of C-FLAG B3GNT2 cells, mass spectrometry"}, "TM9SF1 (human)": {"target": "TM9SF1 (human) (UniProt O15321)", "sequence (O15321 other isoform, or with tags, fused parts or gaps limits assumed)": "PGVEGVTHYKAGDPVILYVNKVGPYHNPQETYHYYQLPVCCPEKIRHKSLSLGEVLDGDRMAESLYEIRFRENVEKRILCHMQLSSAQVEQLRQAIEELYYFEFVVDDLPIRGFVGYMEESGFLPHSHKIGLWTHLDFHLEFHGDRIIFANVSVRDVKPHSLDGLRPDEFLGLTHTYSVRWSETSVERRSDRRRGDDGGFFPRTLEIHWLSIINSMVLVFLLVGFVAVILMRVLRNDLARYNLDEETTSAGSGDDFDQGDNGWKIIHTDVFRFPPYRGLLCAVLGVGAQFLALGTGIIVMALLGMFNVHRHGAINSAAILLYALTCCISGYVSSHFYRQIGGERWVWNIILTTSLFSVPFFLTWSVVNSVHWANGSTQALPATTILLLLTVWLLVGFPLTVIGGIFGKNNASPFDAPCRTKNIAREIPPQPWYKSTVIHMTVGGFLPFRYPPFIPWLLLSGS", "assay": "co-IP with IgG control, lysate of C-FLAG B3GNT2 cells, mass spectrometry"}, "PUF60 (human)": {"target": "PUF60 (human) (UniProt Q9UHX1)", "assay": "co-IP with IgG control, lysate of C-FLAG B3GNT2 cells, mass spectrometry"}, "PSMB5 (human)": {"target": "PSMB5 (human) (UniProt P28074)", "assay": "co-IP with IgG control, lysate of C-FLAG B3GNT2 cells, mass spectrometry"}, "PURA (human)": {"target": "PURA (human) (UniProt Q00577)", "assay": "co-IP with IgG control, lysate of C-FLAG B3GNT2 cells, mass spectrometry"}, "RPL17 (human)": {"target": "RPL17 (human) (UniProt P18621)", "assay": "co-IP with IgG control, lysate of C-FLAG B3GNT2 cells, mass spectrometry"}, "RBM14 (human)": {"target": "RBM14 (human) (UniProt Q96PK6)", "assay": "co-IP with IgG control, lysate of C-FLAG B3GNT2 cells, mass spectrometry"}, "XPOT (human)": {"target": "XPOT (human) (UniProt O43592)", "assay": "co-IP with IgG control, lysate of C-FLAG B3GNT2 cells, mass spectrometry"}, "TPM2 (human)": {"target": "TPM2 (human) (UniProt P07951)", "assay": "co-IP with IgG control, lysate of C-FLAG B3GNT2 cells, mass spectrometry"}, "LAMC1 (human)": {"target": "LAMC1 (human) (UniProt P11047)", "assay": "co-IP with IgG control, lysate of C-FLAG B3GNT2 cells, mass spectrometry"}, "SPARC (human)": {"target": "SPARC (human) (UniProt P09486)", "assay": "co-IP with IgG control, lysate of C-FLAG B3GNT2 cells, mass spectrometry"}, "HBB (human)": {"target": "HBB (human) (UniProt P68871)", "assay": "co-IP with IgG control, lysate of C-FLAG B3GNT2 cells, mass spectrometry"}, "UniProt P01837.1": {"target": "UniProt P01837.1", "assay": "co-IP with IgG control, lysate of C-FLAG B3GNT2 cells, mass spectrometry"}, "CPT1A (human)": {"target": "CPT1A (human) (UniProt P50416)", "sequence (P50416 other isoform, or with tags, fused parts or gaps limits assumed)": "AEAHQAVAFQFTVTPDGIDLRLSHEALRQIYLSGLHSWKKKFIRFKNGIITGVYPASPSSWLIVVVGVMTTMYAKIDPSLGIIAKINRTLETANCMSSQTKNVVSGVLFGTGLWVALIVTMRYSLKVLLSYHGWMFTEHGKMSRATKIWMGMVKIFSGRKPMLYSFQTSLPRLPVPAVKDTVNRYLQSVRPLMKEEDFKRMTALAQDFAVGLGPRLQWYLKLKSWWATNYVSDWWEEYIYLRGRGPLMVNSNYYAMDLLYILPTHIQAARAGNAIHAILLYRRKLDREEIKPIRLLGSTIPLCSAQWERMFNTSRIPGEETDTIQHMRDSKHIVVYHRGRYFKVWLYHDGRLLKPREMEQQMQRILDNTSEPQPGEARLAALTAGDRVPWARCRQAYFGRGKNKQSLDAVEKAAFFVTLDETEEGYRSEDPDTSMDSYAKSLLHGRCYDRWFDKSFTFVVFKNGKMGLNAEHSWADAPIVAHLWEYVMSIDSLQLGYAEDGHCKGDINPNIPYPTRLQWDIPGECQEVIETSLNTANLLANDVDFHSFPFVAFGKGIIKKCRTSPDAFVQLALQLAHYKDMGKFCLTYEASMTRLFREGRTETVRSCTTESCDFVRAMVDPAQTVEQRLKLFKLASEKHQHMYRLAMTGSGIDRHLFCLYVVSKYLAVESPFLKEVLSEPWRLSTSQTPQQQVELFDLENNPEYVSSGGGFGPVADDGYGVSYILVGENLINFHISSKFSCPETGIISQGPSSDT", "assay": "co-IP with IgG control, lysate of C-FLAG B3GNT2 cells, mass spectrometry"}, "NAP1L1 (human)": {"target": "NAP1L1 (human) (UniProt P55209)", "sequence (P55209 2-388 limits assumed)": "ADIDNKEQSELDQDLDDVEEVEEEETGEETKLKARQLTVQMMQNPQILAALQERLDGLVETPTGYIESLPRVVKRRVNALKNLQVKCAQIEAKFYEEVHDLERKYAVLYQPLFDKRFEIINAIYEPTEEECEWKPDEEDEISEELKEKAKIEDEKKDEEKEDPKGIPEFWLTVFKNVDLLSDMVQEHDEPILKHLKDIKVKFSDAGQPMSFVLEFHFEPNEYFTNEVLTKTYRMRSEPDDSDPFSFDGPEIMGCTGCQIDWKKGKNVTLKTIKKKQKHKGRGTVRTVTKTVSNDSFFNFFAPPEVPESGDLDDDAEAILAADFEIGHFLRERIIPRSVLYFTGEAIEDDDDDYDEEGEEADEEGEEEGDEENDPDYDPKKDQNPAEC", "assay": "co-IP with IgG control, lysate of C-FLAG B3GNT2 cells, mass spectrometry"}, "MMS19 (human)": {"target": "MMS19 (human) (UniProt Q96T76)", "assay": "co-IP with IgG control, lysate of C-FLAG B3GNT2 cells, mass spectrometry"}, "COPA (human)": {"target": "COPA (human) (UniProt P53621)", "assay": "co-IP with IgG control, lysate of C-FLAG B3GNT2 cells, mass spectrometry"}, "MMP14 (human)": {"target": "MMP14 (human) (UniProt P50281)", "assay": "co-IP with IgG control, lysate of C-FLAG B3GNT2 cells, mass spectrometry"}}, "data": [{"substance": "IgG control (Millipore Sigma 12-371) (antibody)", "values": [{"measurement": "co-IP mass spectrometry count", "setting": "RPL9 (human)", "result": 0}, {"measurement": "co-IP mass spectrometry count", "setting": "RPL26 (human)", "result": 5}, {"measurement": "co-IP mass spectrometry count", "setting": "TOR1AIP2 (human)", "result": 0}, {"measurement": "co-IP mass spectrometry count", "setting": "CTHRC1 (human)", "result": 0}, {"measurement": "co-IP mass spectrometry count", "setting": "PSMD4 (human)", "result": 0}, {"measurement": "co-IP mass spectrometry count", "setting": "HADHA (human)", "result": 0}, {"measurement": "co-IP mass spectrometry count", "setting": "CD70 (human)", "result": 0}, {"measurement": "co-IP mass spectrometry count", "setting": "MAGT1 (human)", "result": 0}, {"measurement": "co-IP mass spectrometry count", "setting": "ARHGEF2 (human)", "result": 0}, {"measurement": "co-IP mass spectrometry count", "setting": "HSPD1 (human)", "result": 0}, {"measurement": "co-IP mass spectrometry count", "setting": "PIGR (human)", "result": 0}, {"measurement": "co-IP mass spectrometry count", "setting": "GANAB (human)", "result": 0}, {"measurement": "co-IP mass spectrometry count", "setting": "SPRR1A (human)", "result": 0}, {"measurement": "co-IP mass spectrometry count", "setting": "PJA2 (human)", "result": 0}, {"measurement": "co-IP mass spectrometry count", "setting": "ARF4 (human)", "result": 0}, {"measurement": "co-IP mass spectrometry count", "setting": "SLC25A5 (human)", "result": 6}, {"measurement": "co-IP/MS count, C-term IgG", "setting": "HNRNPH1 (human)", "result": 11}, {"measurement": "co-IP/MS count, C-term IgG", "setting": "RPL7A (human)", "result": 5}, {"measurement": "co-IP/MS count, C-term IgG", "setting": "DDX3X (human)", "result": 15}, {"measurement": "co-IP/MS count, C-term IgG", "setting": "XPO1 (human)", "result": 0}, {"measurement": "co-IP/MS count, C-term IgG", "setting": "TM9SF1 (human)", "result": 0}, {"measurement": "co-IP/MS count, C-term IgG", "setting": "PUF60 (human)", "result": 5}, {"measurement": "co-IP/MS count, C-term IgG", "setting": "PSMB5 (human)", "result": 0}, {"measurement": "co-IP/MS count, C-term IgG", "setting": "PURA (human)", "result": 0}, {"measurement": "co-IP/MS count, C-term IgG", "setting": "RPL17 (human)", "result": 2}, {"measurement": "co-IP/MS count, C-term IgG", "setting": "RBM14 (human)", "result": 0}, {"measurement": "co-IP/MS count, C-term IgG", "setting": "XPOT (human)", "result": 0}, {"measurement": "co-IP/MS count, C-term IgG", "setting": "TPM2 (human)", "result": 0}, {"measurement": "co-IP/MS count, C-term IgG", "setting": "LAMC1 (human)", "result": 0}, {"measurement": "co-IP/MS count, C-term IgG", "setting": "SPARC (human)", "result": 0}, {"measurement": "co-IP/MS count, C-term IgG", "setting": "HBB (human)", "result": 0}, {"measurement": "co-IP/MS count, C-term IgG", "setting": "UniProt P01837.1", "result": 108}, {"measurement": "co-IP/MS count, C-term IgG", "setting": "CPT1A (human)", "result": 0}, {"measurement": "co-IP/MS count, C-term IgG", "setting": "NAP1L1 (human)", "result": 0}, {"measurement": "co-IP/MS count, C-term IgG", "setting": "MMS19 (human)", "result": 0}, {"measurement": "co-IP/MS count, C-term IgG", "setting": "COPA (human)", "result": 0}, {"measurement": "co-IP/MS count, C-term IgG", "setting": "MMP14 (human)", "result": 0}]}]}
